Test results from patent US20260103686A1, “MICROBIAL STRAIN, PROTEIN, AND METHOD FOR PRODUCING GALLIC ACID USING MICROBIAL STRAIN OR PROTEIN” (UNIVERSITY OF TSUKUBA, priority 2022, published 2026).

Assays:
Assay in all cases: purified protein, by the assay type
[1] = substrate: O=C(O)c1ccc(O)cc1; settings: other: pHBA substrate, 200 µM NADPH, 10 µM FAD, pH 7.9, 25° C., 340 nm
[2] = substrate: O=C(O)c1ccc(O)c(O)c1; format: biochemical, Hylemonella gracilis; settings: other: PCA substrate, 200 µM NADPH, 10 µM FAD, pH 7.9, 25° C., 340 nm
Method: (§1) The cell-free extracts were subjected to a HisTrap HP column (GE healthcare) which was equilibrated with an equilibration buffer (20 mM Tris-HCl buffer (pH 7.9), 20 mM imidazole), and then fractions eluted with an eluent (20 mM Tris-HCl buffer (pH 7.9), 500 mM imidazole) were collected.
The protein concentrations of the purified enzyme liquids were measured using Bio-Rad Protein Assay Dye Reagent Concentrate (Bio-Rad, USA), and the purified enzyme liquids were diluted to 1 of mg/mL with a buffer. Thus, purified enzyme liquids protocatechuic acid 5-hydroxylases, HgPobA, HyPobA, PoPobA, HgPobA-TY and PaPobA, were prepared.
Using the purified enzyme liquids of HgPobA, HgPobA-TY, PoPobA, HyPobA and PaPobA described above, a reaction kinetic analysis was conducted.

[3] = substrate: O=C(O)c1ccc(O)c(O)c1; settings: other: PCA substrate, 200 µM NADPH, 10 µM FAD, pH 7.9, 25° C., 340 nm
Method: as §1
The protein concentrations of the purified enzyme liquids were measured using Bio-Rad Protein Assay Dye Reagent Concentrate (Bio-Rad, USA), and the purified enzyme liquids were diluted to 1 of mg/mL with a buffer.

Protein	Km [1]	kcat [1]	kcat/Km [1]	Km [2]	kcat [2]	kcat/Km [2]	Km [3]
Hylemonella gracilis-derived PobA (HgPobA), protocatechuic acid 5-hydroxylase, wild type, SEQ ID NO: 20 (Hylemonella gracilis ATCC 19624) (protein) MSYPTRTQVAIIGAGPSGLMLGALLHKAGIDTVVLERQSGDYVLGRIRAGVLEQVTMDLMDEIGVGARMHQEGLVHGGFDMLFQGQRHRIDMNRLTGGQNVMVYGQTEVTRDLMDARQQAGLTTIYEAANVAIHDFGSGKPRVTYEKDGKTHELQCDFIAGCDGFHGVCRDTVKKSASASAIREYEKVYNFGWLGLLSDTPPVHHELIYVNSERGFALCSQRSATRSRYYLQVPLTDKVEQWSDQAFWDELKLRLDPQAREHLVTGPSIEKSIAPLRSFVTEPLRFGRLFLAGDAGHIVPPTGAKGLNLAATDVKYLSAALTEFYQGKSEAGINHYSERCLKRIWRAERFSWWFTSLMHRFPENGEIGQKLQEAELDYIVHSETGARSVAENYVGLPLDFGA	0.035 mM	5.6 s⁻¹	160000 M⁻¹ s⁻¹	0.26 mM	0.74 s⁻¹	2800 M⁻¹ s⁻¹	
Hylemonella gracilis-derived PobA (HgPobA, SEQ ID NO: 20) variant HgPobA-TY, T302A/Y393F (gene SEQ ID NO: 37) (Hylemonella gracilis ATCC 19624; T302A/Y393F) (protein) MSYPTRTQVAIIGAGPSGLMLGALLHKAGIDTVVLERQSGDYVLGRIRAGVLEQVTMDLMDEIGVGARMHQEGLVHGGFDMLFQGQRHRIDMNRLTGGQNVMVYGQTEVTRDLMDARQQAGLTTIYEAANVAIHDFGSGKPRVTYEKDGKTHELQCDFIAGCDGFHGVCRDTVKKSASASAIREYEKVYNFGWLGLLSDTPPVHHELIYVNSERGFALCSQRSATRSRYYLQVPLTDKVEQWSDQAFWDELKLRLDPQAREHLVTGPSIEKSIAPLRSFVTEPLRFGRLFLAGDAGHIVPPAGAKGLNLAATDVKYLSAALTEFYQGKSEAGINHYSERCLKRIWRAERFSWWFTSLMHRFPENGEIGQKLQEAELDYIVHSETGARSVAENFVGLPLDFGA	0.034 mM	3.1 s⁻¹	91000 M⁻¹ s⁻¹				0.041 mM
